Data from the supplement of paper PMC7125110.
± gives the standard error. This sample holds only a part of the variants without activity.

B1: glmS ribozyme (parent)
chain: AUAAAAGCGCCAGAACUACAGAAAUGUAGUUGACGAGGAGGAGGUUUAUCGAAUUUUCGGCGGAUGCCUCCAAA

What was measured:
Details in all cases: with glucosamine-6-phosphate
glucosamine-6-phosphate [1] = variants of: B1; assay: self-cleavage kobs at 40 uM GlcN6P; higher = faster cleavage; RNA array
Summary of the method: (§1)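 On sequenced MiSeq chips, barcoded ribozyme variants were made in situ by E. coli RNA polymerase and followed at 37 °C through a hybridised Cy3 probe. Glucosamine-6-phosphate was flowed in at 40 μM to 10 mM in HEPES/KCl/Mg(OAc)2 buffer. Exponential fits to normalised per-tile medians gave kobs, and weighted Michaelis–Menten fits gave kcat and KM.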

glucosamine-6-phosphate [2] = variants of: B1; assay: self-cleavage kobs at 160 uM GlcN6P; higher = faster cleavage; RNA array
Summary of the method: as §1

glucosamine-6-phosphate [3] = variants of: B1; assay: self-cleavage kobs at 640 uM GlcN6P; higher = faster cleavage; RNA array
Summary of the method: as §1

glucosamine-6-phosphate [4] = variants of: B1; assay: self-cleavage kobs at 2500 uM GlcN6P; higher = faster cleavage; RNA array
Summary of the method: as §1

glucosamine-6-phosphate [5] = variants of: B1; assay: self-cleavage kobs at 10000 uM GlcN6P; higher = faster cleavage; RNA array
Summary of the method: as §1

Row | Variant | self-cleavage kobs at 40 uM GlcN6P (glucosamine-6-phosphate [1]) [s⁻¹] | self-cleavage kobs at 160 uM GlcN6P (glucosamine-6-phosphate [2]) [s⁻¹] | self-cleavage kobs at 640 uM GlcN6P (glucosamine-6-phosphate [3]) [s⁻¹] | self-cleavage kobs at 2500 uM GlcN6P (glucosamine-6-phosphate [4]) [s⁻¹] | self-cleavage kobs at 10000 uM GlcN6P (glucosamine-6-phosphate [5]) [s⁻¹]
1 | C8G G29U G66U | < 1e-05 |  |  |  | 
2 | C34A G44U | < 1e-05 | < 1e-05 | < 1e-05 | < 1e-05 | < 1e-05
3 | G13U G38U C68G | 0.00012 ± 4.3e-05 | 0.000111 ± 2.7e-05 | 0.000157 ± 4.9e-05 | 6.64e-05 ± 2.9e-05 | 7.63e-05 ± 1.8e-05
4 | A42C G62C | < 1e-05 | < 1e-05 |  |  | < 1e-05
5 | U30A U45C A48C | < 1e-05 |  |  |  | 
6 | U30G G60C | < 1e-05 |  | < 1e-05 |  | < 1e-05
7 | C8A C34U G35U G43A U45G U54C | < 1e-05 |  |  |  | < 1e-05
8 | A15C A53U G62A | < 1e-05 |  |  | < 1e-05 | < 1e-05
9 | G9C U46C | < 1e-05 |  | < 1e-05 |  | < 1e-05
10 | C10U G63U A64U | < 1e-05 |  |  |  | 
11 | C8U G13U A39C | < 1e-05 |  |  |  | 
12 | A36C G43A U55A C71U | < 1e-05 |  | < 1e-05 | < 1e-05 | < 1e-05
13 | C8U U45C | < 1e-05 | < 1e-05 | < 1e-05 | < 1e-05 | 
14 | A36U C50U A52G C70G | 0.000113 ± 3.1e-05 |  | 0.000329 ± 7.9e-05 | 0.000173 ± 8.2e-05 | 
15 | A12U G32C | < 1e-05 | < 1e-05 |  | < 1e-05 | 
16 | A52U C58G | < 1e-05 |  | < 1e-05 |  | < 1e-05
17 | A39C A42U A48G C50A | < 1e-05 |  |  |  | 
18 | G35C G41A | < 1e-05 | < 1e-05 | < 1e-05 | < 1e-05 | < 1e-05
19 | C11A A36U G62C C71G | < 1e-05 | < 1e-05 |  |  | < 1e-05
20 | G7A G62C | < 1e-05 | < 1e-05 | < 1e-05 | < 1e-05 | 
21 | C8U G38U | < 1e-05 | < 1e-05 |  | < 1e-05 | 
22 | U47C C61U G63U | < 1e-05 |  |  |  | 
23 | A36U A48U G51U U65G | < 1e-05 |  |  |  | 
24 | G44C C50A U55A C70U | < 1e-05 |  |  |  | 

Row | Variant | self-cleavage kobs at 40 uM GlcN6P (glucosamine-6-phosphate [1]) [s⁻¹] | self-cleavage kobs at 160 uM GlcN6P (glucosamine-6-phosphate [2]) [s⁻¹] | self-cleavage kobs at 640 uM GlcN6P (glucosamine-6-phosphate [3]) [s⁻¹] | self-cleavage kobs at 2500 uM GlcN6P (glucosamine-6-phosphate [4]) [s⁻¹] | self-cleavage kobs at 10000 uM GlcN6P (glucosamine-6-phosphate [5]) [s⁻¹]
25 | A6U G9A A33G C68U C71G | 0.000234 ± 0.0001 |  |  |  | 4.24e-05 ± 1.8e-05
26 | G7A G29A U55C G60U | < 1e-05 |  |  | < 1e-05 | 
27 | G44A G59C C71U | < 1e-05 |  |  |  | < 1e-05
28 | G9A A39G | < 1e-05 | < 1e-05 |  |  | 
29 | C8U C68U C70U | < 1e-05 |  |  |  | < 1e-05
30 | C61U U65C | < 1e-05 |  | < 1e-05 | < 1e-05 | < 1e-05
31 | G29C A36G G51C | < 1e-05 |  |  |  | 
32 | A52U C58A | < 1e-05 |  | < 1e-05 |  | 
33 | G9U A36G | < 1e-05 |  |  | < 1e-05 | < 1e-05
34 | C16A G37C | < 1e-05 |  |  |  | 
35 | C8G C34A | < 1e-05 | < 1e-05 |  | < 1e-05 | < 1e-05
36 | C11A G38U C67G C68U | 0.000296 ± 7.3e-05 |  |  |  | 0.000394 ± 9.3e-05
37 | G13U A33G | < 1e-05 | < 1e-05 | < 1e-05 | < 1e-05 | < 1e-05
38 | G51U A53G | < 1e-05 | < 1e-05 | < 1e-05 | < 1e-05 | 
39 | A36U C68G C70U | 8.4e-05 ± 2.2e-05 |  |  |  | 0.000213 ± 4.7e-05
40 | U31A G62U | < 1e-05 | < 1e-05 | < 1e-05 |  | < 1e-05
41 | U30G A39G | 0.000352 ± 8.4e-05 | 0.000654 ± 0.00021 | 0.00235 ± 0.00063 | 0.00681 ± 0.0014 | 0.0183 ± 0.007
42 | A39G C70U | 0.00118 ± 0.00015 | 0.0014 ± 0.0004 | 0.00828 ± 0.0017 | 0.0127 ± 0.0053 | 0.022 ± 0.0045
43 | C34A C50G C68G | 0.000116 ± 2.4e-05 |  |  |  | 6.65e-05 ± 1.4e-05
44 | A15G G43U A53C | < 1e-05 |  |  |  | 
45 | G43U A53U U65G | < 1e-05 |  | < 1e-05 |  | 
46 | U30G C34A G51U A64U | < 1e-05 |  |  |  | 
47 | G7U G41U | < 1e-05 | < 1e-05 | < 1e-05 | < 1e-05 | < 1e-05
48 | C11U A48G C68A | < 1e-05 |  |  |  | 
